This is an account of results in article PMC10803253, “Structural insights into the iron nitrogenase complex” (Nature Structural & Molecular Biology, 2023).

To fix the notation:
B3: Fe nitrogenase reductase component AnfH2 (Rhodobacter capsulatus) (enzyme, UniProt Q07942 1-275, looked up)
chain: MTRKIAIYGKGGIGKSTTTQNTAAALAFFHEKNVFIHGCDPKADSTRLILGGLPQQTVMDTLRIEGAERVTVDKVVKTGFKDIRCVESGGPEPGVGCAGRGVITAIDLMEENEAYSEDLDFLFFDVLGDVVCGGFAMPIRDGKAEEVYIVASGEMMAIYAANNICKGLAKYARQSGVRLGGIICNSRNVDGEKEFLEEFTKAIGTKMIHFVPRDNIVQKAEFNKQTVTEFQPEANQAQEYRELGRKIIENEDFVIPKPLAMDELEAMVVKYGLMD
notes: AnfH, nitrogenase iron protein of the Fe-only nitrogenase, Rhodobacter capsulatus B10S; the anfHDGK operon was amplified whole from genomic DNA; Homodimer with one [Fe4S4] cluster between the two chains; in the trapped complex one MgADP·AlF3 per chain; His6-tag inserted without any linker; no cleavage step is described; also called H subunit

The target in series [1] is T1, AnfD, D subunit of the Fe nitrogenase catalytic component (Rhodobacter capsulatus) (Rhodobacter capsulatus, UniProt Q07933 1-526).
T1 construct: AnfD, alpha (D) subunit of the Fe-only nitrogenase, Rhodobacter capsulatus B10S; the anfHDGK operon was amplified whole from genomic DNA; Single subunit, written for the subunit-to-subunit rows of the complexes solved here
The series can be described thus: cryo-EM structure; catalytic component Anf(DGK)2 alone with CHAPSO (0.4% m/V) added on the grid right before plunge freezing; 2.49 Å, C2 symmetry. Particulars: both partners purified.

Series [2] concerns the target B3. The series can be described thus: cryo-EM structure; ADP·AlF3-stabilized Anf(DGK)2(H2)2 complex after SEC, 1 mg/ml, anaerobic plunge freezing, no detergent; 2.35 Å, C2 symmetry. The conditions noted are these: both partners purified.
Series [3] addresses T1, AnfD, D subunit of the Fe nitrogenase …. Kind of series: mass photometry; individual nitrogenase components; 500 nM stock diluted 0.5 µl into 19.5 µl of 150 mM NaCl, 50 mM Tris pH 7.8, 10% glycerol, 10 mM dithionite. The conditions noted are these: both partners purified.
Series [4] concerns the molecule itself. Described as above.
Series [5] has as its target T2, Fe nitrogenase catalytic component Anf(DGK)2 (Rhodobacter capsulatus) (Rhodobacter capsulatus, UniProt Q07933 1-526; Q07934 1-115; Q07935 1-460).
T2 construct: AnfD, alpha (D) subunit of the Fe-only nitrogenase, Rhodobacter capsulatus B10S; the anfHDGK operon was amplified whole from genomic DNA; AnfG, delta (G) subunit of the Fe-only nitrogenase, Rhodobacter capsulatus B10S; AnfK, beta (K) subunit of the Fe-only nitrogenase, Rhodobacter capsulatus B10S; Heterohexamer with two P-clusters [Fe8S7] and two FeFeco [Fe8S9C-(R)-homocitrate]; Strep-tag II …
The series can be described thus: SEC; 4 nmol catalytic and 32 nmol reductase component, 1 h at 30 °C in 100 mM MOPS, 50 mM Tris, 100 mM NaCl pH 7.3, 5 mM dithionite, 4 mM NaF, 0.2 mM AlCl3, 8 mM MgCl2, 1 mM ATP (ADP·AlF3 trap); SEC in 50 mM Tris pH 7.8, 200 mM NaCl, 5 mM dithionite; anaerobic. The conditions noted are these: both partners purified. A general note: SEC sorts molecules by how far they enter the pores of the column.

B1: AnfK, K subunit of the Fe nitrogenase catalytic component (Rhodobacter capsulatus) (natural protein, UniProt Q07935 1-460, looked up)
chain: MTCQVTQKAREGTINPIFTCQPAGAQFASIGIKDCIGIVHGGQGCVMFVRLLISQHMKESFEIASSSVHEDGAVFGALDRVETAVEVLLTRYPDVKVVPIITTCSTEIIGDDVDGLLSKLEDELLPTKFPGREVHLLTVHCPSFVGSMITGYDKAVHDFVKKFATKDEPSDKINLITGWVNPGDVKELKHLLEVMEVKANVLFEVESFDSPLMPDLEHHSHGSTTIEDLRDTANAKGTIALNRYEGMKAADYLKKKFKVPAVIGPTPVGIRNTDAFLKAVSEMTGQPIPAQLVKERGLALDAIADIGHMFLADKRVAIYANPDLAIGLTEFCLDLEMKPKLLLLGDDNSGYVKDPRVVALQENAPDLEIVTNADFWDLESRIQQGLELDLILGHSKGRFISIDYKVPMVRVGFPTYDRAGMYRHPVLGYGGAMFLAETMANTLFADMEAKKNKEWILNVW
notes: AnfK, beta (K) subunit of the Fe-only nitrogenase, Rhodobacter capsulatus B10S; the anfHDGK operon was amplified whole from genomic DNA; Single subunit, written for the subunit-to-subunit rows of the complexes solved here
Take B1: the binding result in series [1] is recorded as “binds”.

B2: AnfG, G subunit of the Fe nitrogenase catalytic component (Rhodobacter capsulatus) (natural protein, UniProt Q07934 1-115, looked up)
chain: MTDISEKLDPLVDYIMKNCLWQFNSRGWDRLKQNAGILSQTCEILCGEEPVHETAMDRCYWVDAVILSRAYKARFPWLMAMTKPEIKSLFKALHEKIDHLTVHGSLNTELTVPHY
notes: AnfG, delta (G) subunit of the Fe-only nitrogenase, Rhodobacter capsulatus B10S; the anfHDGK operon was amplified whole from genomic DNA; Single subunit, written for the subunit-to-subunit rows of the complexes solved here
Take B2: the binding result in series [2] and in series [3] was “binds” in each case.
Usually stoichiometry N stands for a count of units in the complex or per binding partner. Turning to B3, the figures for the “stoichiometry N” value in series [4] and in series [5] were 2 subunits in the oligomer and 2 AnfH2 per Anf(DGK)2, respectively.
